Laboratory results: the DeepSol protein solubility set

Test: soluble on expression in E. coli; label from the status in PepcDB or PDB records

Soluble on expression in E. coli, not soluble:
MGSDKIHHHHHHVKFRVERDVLAEAVTWTARSLSPRPPVPVLSGLLLKAEAGTVSLSSFDYETSARLEIPADISVEGTILVSGRLLADICRSLPSAPVDVETDGNKVTLTCRRSSFHLATMPEAEYPPLPALPTISGTVPGDSFAQAVSQVIIAASKDDTLPILTGVRMEIEDDLITLLATDRYRLAMREVPWKPVTPGISTSALVKAKTLNEVAKTLGNSGDINLALADDDSRLIGFESGGRTTTSLLVDGDYPKIRSLFPDATPIHATVQTQELVEAVRRVSLVAERNTPVRLAFTDGQLHLDAGTGEDAQASEELEAQLTGDEITVAFNPHYLIEGLSVIETKFVRFSFTTAPKPAMITAQVDADGEDQDDYRYLVMPVRLPN, MGSDKIHHHHHHMTKHLDVGQCLTIIEGTNTALKSYMDHFDFMEAAISRVLELEGSLKGKGGEALLRNYQELQLPAIRAARAFISSMKEMGEKLRSLILSFEPSENGMVSEDFYRNQVTRGYDRFEQFMEQNKAEVDAIAASVSHIIDLGKLDIRHVQDRVDDARKHANDTVEGLYELDHEGMRLMRELQRDMAELKAILKKVTEWTVSGGALLNGVDLNDVRSHFADKTLHTKAPEVSVKLSSPNPLIQYANDFPLRFKYDTMRSIMKVFDLSHHHKWFSNRIKSLPLTSLFIMARWNVNTKSDNYLKVH, MGSDKIHHHHHHMPFVFACLSIKIPRKGTVMAEPLATTPIRYSFGADEHLFAEVSESMSLEAFFKGMAVTRAVERMALDGVLDVCLANASFQVRFDPDRIAPEALLEAVRGAEAQAVAERSLQTRIIEIPVLYNDPWTHETLMRFRDRHQDPTSTDLEYAARINGLADVEAFIAAHSGAPWFVSMVGFVAGLPFMFQMVERERQLQVPKYLRPRTDTPKLTLGHGGCFGCIYSVRGAGGYQMFGVTPAPIYDPQQTLNYLKEHMVFFRPGDIVQFKPIDRRTYDQAVAEVEDGCFDLRIRPVAFSLDAFLADPVGYPKSLQEVLA, MVHYKLSYFPIRGAGEVIRQIFVYAGQSFEDHRISIEEWAAVKPTTPFGQLPLLEVDGKVLPQSHSIARFLARQFGINGKCAWEEAQVNSIADQFKDYRNEVRPYVMVKMGFAEGDLDALSKDVFLPGFKKHYGFIYNFLKTAGSGYLVGDSLTFVDLLIAQHTADILSTDPALLEEFPQFKAHQEKVHSNANIKKWLETRPETQF, MEAFIRSDQYNFIKSQAYILANGHATANDRGVIQALKSLAIEKIIHVFENLTDEQKELIDTVLTVQNREDAESFLTKINPYVIPFQEVTAQTLKKLFPKAKKLKLPDMEEMDMKEISYLSWVDKGSSRKFIIAKNDKNKFVGLQGTFQSLNKKSICSLCHGHEEVGMFLVEIKGDIPGTFVKKGNYICKDGVACNQNMKSLDKLQDFIERLKK, MGSDKIHHHHHHMSLAPSVIEPAHEEDAFMDLLATSALDDPLAAARDATADMLRQRQGDHSLPQPFYNDPRVFALEMREIFEHEWLFVGMTCEIPAKGNYLTVQIGDNPIIVVRGDQGTIHAFHNVCRHRGSRLCTQAKGKVAKLVCPYHQWTYELDGRLLFAGQDMGEDFDLGAHGLKPVAVTHAGGFLFVSLADQPPAIDDFLATLDDYLAPYEMDNVKVAAESNIVEQANWKLVIENNRECYHCNGAHPELLNSLIEYDDTDDPRATPAYRDLVARQQAHWEQQQVPWALKRFGKRNRLTRTPMIEGVVSMTMDGRPASQRLMGRLPNPDMGSLRILHLPNSWNHFMGDHAVVFRVLPLGPQQTLVTTKWLVHRDAQEGVDYDPEWMRKVWDATTDQDRQLAEENQRGINSVAYQPGPYSRTYEFGVIDFVDWYSDTMLSRLDAEAPSLHIVQG, MSLRDLPGQTGVQFTTGGVNHFLSWKSGGERHYFTSLAFTHTNRNRTCWLYGLDYQIKEYTYENKAIPKAQFTGELGYFIPVLSDKGRNVCFRIGLSVLGGFETVNWGTSLLPDGAAVTNGDCFIYGGGLTAAFDVWLTDRIILLMQVKERAFFGTDAGNFHTQIGLGVRLIINEGHHHHHH, MGSDKIHHHHHHMKYMIGIDGGGTKTEAIAFDKDGNELVRATSGFGNILIDFEEALVHIMEAIDQCQKGVLNEHCVCICLGLAGVSGVNTNELTLRLKKKYGTPIEVFNDAMIAHAAVLKGKDGILTIGGTGTICLGKKGEVYEYSGGWGHILGDAGSGYWIGLQALKRMANQLDQGIRLCPLSLRIQDEFQLLTASHIKRLVYRSSKDKVAAITPFVIREARNGNDAAHEIMMQAGKELARITIDVYNKMQLDLLVSIAVSGSILRFVPEIYDEFKKCCEKSVGEVTFVLQSEPAVKGTYYLMKNMYFKK, MAHHHHHHMLRGTPVRRASLRYRRPYWMMFLKGVDNWKIYTVIQQPDHQRTEMLYQAWLGGLDRPYTRPKCMANQPLWLSKKRHMLRKERLDGPETPLEKYVLEWHKKFHSFQGTERPTPDDLHTALDLVERPLDLSYALQLLGQCRNLNNIRFAKETFLVFLEACLRVGRRDCAEYALEHAEPLGFWFIDEDHRRYLQGEQTWYKLSPLDNLYYPVEENAKLNEGRKPITRLSPATESPGSGTAISDGEPSTDVEGETTVDDEIAQLEAELAALEREGGGK, MGSDKIHHHHHHMDHQIEDLLEHWLPLADDAWVLAVITHVQGSAYRKPGAMMLFHEFGQGAGILSGGCLEADLRRYAQNAMQTKQVMCVTYDASDESDASYRLGCGGIVDIMLIPLLKENHDLGLIDLVHAFRHGQSGYYQLPLVASGTDARQYQARFYSADAAPFPISDFAKSKIVKQESNDTLVIPLRPRFHIGIFGGGIDAKPIAAIAHSLGWQVTVIDGRTAYARAADFPHAHIIKQAVGELAANVIAQLDCAVVINHNLGLDAAVLKAIQPYSLDYVALLGPAHRRDKVLAMAGLSAQSFSGVFSAPAGLALGGELPSAIALSILAQCHGVLHGATLKQLDEIMG

Soluble on expression in E. coli, soluble:
MTTLTQVRPASVFVVSGGAKGITAQCVIELAQHQPCRFILLGRSEVIENEPDFARDCVEESVLKKAIMQHLLAQGEKPTPMSVQKVYHKIVSSREIKATLEAIAATGSQVEYIDVDVTNVAELRQKLADVGKITGIIHGAGNLADKLIEKKTDQDFEKVYTAKVQGLENLLSCVDANQLEHLVLFSSVAGFYGNMGQSDYAIANEILNKSAHLIKQNYPQCHVVAINWGGWDSGMVTPELKKAFAERGIDIIPVDVGTKMLVNELHPSHHDSTQVVIGSPIIPAPGNIDPQLRSYRIRRRMTVEANPFLLDHVIAGTPVLPATCGMSWMINACEECYPGYRYFRCQDFKILKGITFNDKVASEHILEIQEVAKHGSESIEFKTKVLSKTPEGKIHYHFSAHITIVRELPAAPVYESLDMTEDHTIGAIGKDFYQKGGLSLFHGISFQQITRVLNINSQKITVECCWAEIPLETQGQFPVKWHNPYATDLSTQPLWLWLSHVHQEVCLPGQITKSEQFRAIPRNKPFYVSCEIEHKTPSGVTADIILHDREGKIYFRIYQAKAIIAPMNLHLEHHHHHH, MGNYLLRKLSCLGENQKKPKKGNPDEERKRQEMTTFERKLQDQDKKSQEVSSTSNQENENGSGSEEVCYTVINHIPHQRSSLSSNDDGYENIDSLTRKVRQFRERSETEYALLRTSVSRPCSCTHEHDYEVVFPH, MAHHHHHHMGTLEAQTQGPGSMGSLSTSISSITTNTTNLGNSTAAALGGGATYDPATGAISAPSYTTYNANGTTATNTSVGAAIDNINANGIKYFHANSTDPDSVATGTNSVAIGPNAVANVDYSVAIGSGATTSAAVPVASASVGGLTFGGFAGSAPIGVFSVGAPGAERQITNVAAGRISAASTDAVNGSQLYATNSN, MNIRERKRKHLEACLEGEVAYQKTTTGLEGFRLRYQALAGLALSEVDLTTPFLGKTLKAPFLIGAMTGGEENGERINLALAEAAEALGVGMMLGSGRILLERPEALRSFRVRKVAPKALLIANLGLAQLRRYGRDDLLRLVEMLEADALAFHVNPLQEAVQRGDTDFRGLVERLAELLPLPFPVMVKEVGHGLSREAALALRDLPLAAVDVAGAGGTSWARVEEWVRFGEVRHPELCEIGIPTARAILEVREVLPHLPLVASGGVYTGTDGAKALALGADLLAVARPLLRPALEGAERVAAWIGDYLEELRTALFAIGARNPKEARGRVERV, MGSDKIHHHHHHMITDENKKLAQWAMDYALKNGCQAAKVLLYSSSNTSFELRDAKMDRLQQASEGGLSLSLYVDGRYGSISTNRLNRKELETFIKNGIDSTRYLAKDEARVLADPSRYYKGGKPDLKLYDAKFASLNPDDKIEMAKAVAEEALGKDERIISVGSSYGDGEDFAYRLISNGFEGETKSTWYSLSADITIRGEGEARPSAYWYESSLYMNDLIKKGIGQKALERVLRKLGQKKVQSGKYTMVVDPMNSSRLLSPMISALNGSALQQKNSFLLNKLNEKIASDRLTLTDEPHLVKASGARYFDNEGIATERRSIFDKGVLNTYFIDTYNAKKMGVDPTISGSSILVMETGDKNLDGLIAGVEKGILVTGFNGGNNNSSTGDFSYGIEGFLIENGKLTQPVSEMNVTGNLITLWNSLVATGNDPRLNSSWRIPSLVFEGVDFSGL, MTLIRWNPWQDLNTLQRQLNHLFEEDMLPSTLLERTLTRVPAAELHETAEVIYLKLELPGIDAKDVDLQVTDKAVYISGERKSETKTEDKGVFKSEFQYGKFQRVIPLPARIQNTNVTAEYKDGILNLTLPKAEVEKNKVVKINIESAAGLEHHHHHH, MSLSGRAGRHERTGEVIVQSYNPEHYSIEFAKKHDFIGFYNHEMQLRKMGSYPPFYYLTMINVSDENEMKAIRTIQEMAQFLRGKLGPDAVILGPVPSTITRIKNKYRYQCIIKYKIEPNLKKELKTLITHYQKDQQKGLTITIDVQPYVLMEGHHHHHH, SVTASRYYPQLMSLVGNVLRFLPAFVRMKQLISEHYVGAVMICDARIYSGSLLSPSYGWICDELMGGGGLHTMGTYIVDLLTHLTGRRAEKVHGLLKTFVRQNAAIRGIRHVTSDDFCFFQMLMGGGVCSTVTLNFNMPGAFVHEVMVVGSAGRLVARGADLYGQKNSATQEELLLRDSLAVGAGLPEQGPQDVPLLYLKGMVYMVQALRQSFQGQGDRRTWDRTPVSMAASFEDGLYMQSVVDAIKRSSRSGEWEAVEVLTEEPDTNQNLCEALQRNNL, HSLLPVDDAINGLSEEQRQLRQTMAKFLQEHLAPKAQEIDRSNEFKNLREFWKQLGNLGVLGITAPVQYGGSGLGYLEHVLVMEEISRASGAVGLSYGAHSNLCINQLVRNGNEAQKEKYLPKLISGEYIGALAMSEPNAGSDVVSMKLKAEKKGNHYILNGNKFWITNGPDADVLIVYAKTDLAAVPASRGITAFIVEKGMPGFSTSKKLDKLGMRGSNTCELIFEDCKIPAANILGHENKGVYVLMSGLDLERLVLAGGPLGLMQAVLDHTIPYLHVREAFGQKIGHFQLMQGKMADMYTRLMACRQYVYNVAKACDEGHCTAKDCAGVILYSAECATQVALDGIQCFGGNGYINDFPMGRFLRDAKLYEIGAGTSEVRRLVIGRAFNADFH, GSPREKVAMEYLQSASRVLTRSQLRDVVASSHLLQSEFMEIPMNFVDPKEIDIPRHGTKNRYKTILPNPLSRVCLRPKNITDSLSTYINANYIRGYSGKEKAFIATQGPMINTVNDFWQMVWQEDSPVIVMITKLKEKNEKCVLYWPEKRGIYGKVEVLVTGVTECDNYTIRNLVLKQGSHTQHVKHYWYTSWPDHKTPDSAQPLLQLMLDVEEDRLASEGRGPVVVHCSAGIGRTGCFIATSIGCQQLKEEGVVDALSIVCQLRVDRGGMVQTSEQYEFVHHALCLFESRLSPETV
